Values of other authors as cited in patent publication US6319955A, “Use of MEK1 inhibitors as protective agents against damage due to ischemia” (priority 2000, dated 2001).

Conditions: compared with native tPA

B1: C84S tPA (protein, UniProt P00750 36-562, looked up, variant C84S)
Tissue-type plasminogen …: SYQVICRDEKTQMIYQQHQSWLRPVLRSNRVEYCWCNSGRAQCHSVPVKSCSEPRCFNGGTCQQALYFSDFVCQCPEGFAGKCSEIDTRATCYEDQGISYRGTWSTAESGAECTNWNSSALAQKPYSGRRPDAIRLGLGNHNYCRNPDRDSKPWCYVFKAGKYSSEFCSTPACSEGNSDCYFGNGSAYRGTHSLTESGASCLPWNSMILIGKVYTAQNPSAQALGLGKHNYCRNPDGDAKPWCHVLKNRRLTWEYCDVPSCSTCGLRQYSQPQFRIKGGLFADIASHPWQAAIFAKHRRSPGERFLCGGILISSCWILSAAHCFQERFPPHHLTVILGRTYRVVPGEEEQKFEVEKYIVHKEFDDDTYDNDIALLQLKSDSSRCAQESSVVRTVCLPPADLQLPDWTECELSGYGKHEALSPFYSERLKEAHVRLYPSSRCTSQHLLNRTVTDNMLCAGDTRSGGPQANLHDACQGDSGGPLVCLNDGRMTLVGIISWGLGCGQKDVPGVYTKVTNYLDWIRDNMRP
in vivo half life, in words: longer in vivo half life than native tPA
